Residue numbers refer to the chain shown, from its start. Names and notes keep the numbering of the source.
T1: VEGF121 (human, UniProt P15692 27-147)
T1 construct: mature; also called Purified VEGF121
T1 sequence (looked up): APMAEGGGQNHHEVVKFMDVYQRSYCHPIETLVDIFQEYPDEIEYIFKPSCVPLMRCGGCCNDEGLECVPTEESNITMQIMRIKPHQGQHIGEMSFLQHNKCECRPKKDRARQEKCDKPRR

B1: pY0192 VH Y27A (Fab, V domains shown)
VH: EVQLVESGGGLVQPGGSLRLSCAASGATFTNYGINWVRQAPGKGLEWVGWINTYTGEPTYAADFKRRFTFSLDTSKSTAYLQMNSLRAEDTAVYYCAKYPHYYGSSHWYFDVWGQGTL
VL: DIQLTQSPSSLSASVGDRVTITCRANEQLSNYLNWYQQKPGKAPKVLIYFTSSLHSGVPSRFSGSGSGTDFTLTISSLQPEDFATYYCQQYSTVPWTFGQGTKVEIKR
B2: pY0192 VH T55A (Fab, V domains shown)
VH: B1 VH with A27Y, T55A
VL: B1 VL
B3: pY0192 VH P100A (Fab, V domains shown)
VH: B1 VH with A27Y, P100A
VL: B1 VL
B4: pY0192 VH N35A (Fab, V domains shown)
VH: B1 VH with A27Y, N35A
VL: B1 VL
B5: pY0192 VH W108A (Fab, V domains shown)
VH: B1 VH with A27Y, W108A
VL: B1 VL
B6: pY0192 VH N52A (Fab, V domains shown)
VH: B1 VH with A27Y, N52A
VL: B1 VL
B7: pY0192 VH H101A (Fab, V domains shown)
VH: B1 VH with A27Y, H101A
VL: B1 VL
B8: pY0192 VH T59A (Fab, V domains shown)
VH: B1 VH with A27Y, T59A
VL: B1 VL
B9: pY0192 VH N31A (Fab, V domains shown)
VH: B1 VH with A27Y, N31A
VL: B1 VL
B10: pY0192 VH Y99A (Fab, V domains shown)
VH: B1 VH with A27Y, Y99A
VL: B1 VL
B11: pY0192 VH Y54A (Fab, V domains shown)
VH: B1 VH with A27Y, Y54A
VL: B1 VL
B12: pY0192 VH S106A (Fab, V domains shown)
VH: B1 VH with A27Y, S106A
VL: B1 VL
B13: pY0192 VH F110A (Fab, V domains shown)
VH: B1 VH with A27Y, F110A
VL: B1 VL
B14: pY0192 VH Y32A (Fab, V domains shown)
VH: B1 VH with A27Y, Y32A
VL: B1 VL
B15: pY0192 VH Y109A (Fab, V domains shown)
VH: B1 VH with A27Y, Y109A
VL: B1 VL
B16: pY0192 VH I34A (Fab, V domains shown)
VH: B1 VH with A27Y, I34A
VL: B1 VL
B17: pY0192 VH T53A (Fab, V domains shown)
VH: B1 VH with A27Y, T53A
VL: B1 VL
B18: pY0192 VH F29A (Fab, V domains shown)
VH: B1 VH with A27Y, F29A
VL: B1 VL
B19: pY0192 VH W50A (Fab, V domains shown)
VH: B1 VH with A27Y, W50A
VL: B1 VL
B20: pY0192 VH Y102A (Fab, V domains shown)
VH: B1 VH with A27Y, Y102A
VL: B1 VL
B21: pY0192 VH G33A (Fab, V domains shown)
VH: B1 VH with A27Y, G33A
VL: B1 VL
B22: pY0192 VH I51A (Fab, V domains shown)
VH: B1 VH with A27Y, I51A
VL: B1 VL
B23: pY0192 VH Y103A (Fab, V domains shown)
VH: B1 VH with A27Y, Y103A
VL: B1 VL
B24: Y0244-1 (Fab, V domains shown)
VH: B1 VH with A27Y, L72V, T74V
VL: B1 VL
notes: only the randomized region is printed, substitutions deduced against Y0192; soluble Fab from E. coli 34B8
B25: Y0238-7 (Fab, V domains shown)
VH: B1 VH with A27Y, H101Y, Y103W, S105T
VL: B1 VL
notes: Library YC-81 (VH3) on the pY0192 template; substitutions deduced against Y0192; soluble Fab
B26: Y0238-3 (Fab, V domains shown)
VH: B1 VH with A27Y, H101Y, S105T
VL: B1 VL
notes: CDRH3 variant (H101Y, S105T) from library YC-81; soluble Fab
B27: Y0244-4 (Fab, V domains shown)
VH: B1 VH with A27Y, L72I, T74K
VL: B1 VL
notes: substitutions deduced against Y0192; soluble Fab
B28: Y0313-1 (Fab, V domains shown)
VH: B1 VH with A27Y, T28D, N31H, I34M, H101Y, S105T
VL: B1 VL
notes: Combination variant: Y0243-1 plus VH3 H101Y and S105T; soluble Fab
B29: Y0243-1 (Fab, V domains shown)
VH: B1 VH with A27Y, T28D, N31H, I34M
VL: B1 VL
notes: CDRH1 variant (T28D, N31H) from library HL-265; soluble Fab
B30: Y0238-5 (Fab, V domains shown)
VH: B1 VH with A27Y, H101Y, Y103I, G104A, S105K
VL: B1 VL
notes: as for B25
B31: Y0238-1 (Fab, V domains shown)
VH: B1 VH with A27Y, H101Y, Y103R, S105T
VL: B1 VL
notes: as for B25
B32: Y0313-3 (Fab, V domains shown)
VH: B1 VH with A27Y, H101Y
VL: B1 VL
notes: Reversion mutant of Y0238-3; soluble Fab
B33: Y0238-10 (Fab, V domains shown)
VH: B1 VH with A27Y, H101Y, Y103R, G104N, S105T
VL: B1 VL
notes: as for B25
B34: hu2.10 (Fab, V domains shown)
VH: EVQLVESGGGLVQPGGSLRLSCAASGYTFTNYGMNWIRQAPGKGLEWVGWINTYTGEPTYAADFKRRFTISLDTSASTVYLQMNSLRAEDTAVYYCAKYPHYYGSSHWYFDVWGQGTLVTVSS
VL: DIQMTQSPSSLSASVGDRVTITCSASQDISNYLNWYQQKPGKAPKLLIYFTSSLHSGVPSRFSGSGSGTDYTLTISSLQPEDFATYYCQQYSTVPWTFGQGTKVEIK
notes: Phage-selected consensus clone, purified soluble Fab with human constant domains; also called consensus clone hu2.10
B35: hu2.10V (Fab, V domains shown)
VH: B34 VH
VL: B34 VL with L46V
notes: Soluble Fab with human constant domains; also called hu2.10 with mutation VL Leu->Val
B36: muMAb VEGF A.4.6.1 (antibody, V domains shown)
VH: EIQLVQSGPELKQPGETVRISCKASGYTFTNYGMNWVKQAPGKGLKWMGWINTYTGEPTYAADFKRRFTFSLETSASTAYLQISNLKNDDTATYFCAKYPHYYGSSHWYFDVWGAGTTVTVSS
VL: DIQMTQTTSSLSASLGDRVIISCSASQDISNYLNWYQQKPDGTVKVLIYFTSSLHSGVPSRFSGSGSGTDYSLTISNLEPEDIATYYCQQYSTVPWTFGGGTKLEIKR

Columns and labels:
VEGF [1] = target: T2, VEGF (human, UniProt P15692-4 27-191, limits assumed); assay: competitive phage-ELISA, wt = pY0192
T2 construct: also called human VEGF; vascular endothelial growth factor
Target sequence in this assay (P15692 other isoform, or with tags, fused parts or gaps limits assumed): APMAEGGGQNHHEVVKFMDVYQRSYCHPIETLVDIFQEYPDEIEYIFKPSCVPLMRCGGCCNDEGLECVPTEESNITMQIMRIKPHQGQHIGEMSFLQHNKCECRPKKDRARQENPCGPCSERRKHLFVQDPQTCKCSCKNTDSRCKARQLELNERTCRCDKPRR

VEGF [2] = target: T2, VEGF; assay: BIAcore-2000 SPR, wt = Y0192
Target sequence in this assay (P15692 other isoform, or with tags, fused parts or gaps limits assumed): as above

rhVEGF165 = rhVEGF165 (human, UniProt P15692 27-191); assay: cell-based or functional assay
VEGF121 [3] = target: T1, VEGF121; assay: BIAcore SPR, VEGF121 immobilised, Fab in solution
VEGF121 [4] = target: T1, VEGF121; assay: BIAcore SPR, VEGF121 immobilised
VEGF [5] = target: T2, VEGF; assay: KDR-IgG competition ELISA, biotinylated VEGF, 10% human serum

Binder | IC50 (mut) / IC50 (wt) (VEGF [1]) | other results
B1 | 34 | 
B2 | 4 | 
B3 | 38 | 
B4 | 66 | 
B5 | > 150 | 
B6 | > 150 | 
B7 | 4 | 
B8 | 3 | 
B9 | > 150 | 
B10 | > 150 | 
B11 | 9 | 
B12 | > 150 | 
B13 | 25 | 
B14 | > 150 | 
B15 | 19 | 
B16 | 6 | 
B17 | 9 | 
B18 | 16 | 

Binder | IC50 (mut) / IC50 (wt) (VEGF [1]) | other results
B19 | > 150 | 
B20 | 4 | 
B21 | 6 | 
B22 | 4 | 
B23 | 5 | 
B24 |  | Kd (wt) / Kd (mut) (VEGF [2]): 3.6 ratio
B25 |  | Kd (wt) / Kd (mut) (VEGF [2]): ≥ 7.3 ratio
B26 |  | Kd (wt) / Kd (mut) (VEGF [2]): ≥ 14 ratio
B27 |  | Kd (wt) / Kd (mut) (VEGF [2]): 0.9 ratio
B28 |  | Kd (wt) / Kd (mut) (VEGF [2]): ≥ 20 ratio; potency in inhibiting VEGF-induced HuVEC DNA synthesis, against the wild-type Fab (Y0192) (rhVEGF165): 30 fold
B29 |  | Kd (wt) / Kd (mut) (VEGF [2]): 4.1 ratio
B30 |  | Kd (wt) / Kd (mut) (VEGF [2]): 3.2 ratio
B31 |  | Kd (wt) / Kd (mut) (VEGF [2]): 7.3 ratio
B32 |  | Kd (wt) / Kd (mut) (VEGF [2]): 4.5 ratio
B33 |  | Kd (wt) / Kd (mut) (VEGF [2]): 4.8 ratio
B34 |  | KD(A4.6.1)/KD(mut) as headed (values are KD(mut) over KD of the chimera) (VEGF121 [3]): 35 ratio
B35 |  | fold improvement in KD over hu2.10 (VEGF121 [4]): 6 fold; KD(A4.6.1)/KD(mut) as headed (values are KD(mut) over KD of the chimera) (VEGF121 [3]): 5.8 ratio
B36 |  | IgG1/chIgG1 (EC50 ratio) (VEGF [5]): 0.759

— EP2336190A2 (Genentech, Inc., dated 2011)
